Test results from article PMC10632791.

Legend:
[1] = target: T1, DegU (Bacillus velezensis DMW1) (UniProt A3KLC2); assay: EMSA; details: MST: 50 mM Tris pH 7.5, 150 mM NaCl, 10 mM MgCl2, 0.05% Tween 20, 25 C
T1 sequence: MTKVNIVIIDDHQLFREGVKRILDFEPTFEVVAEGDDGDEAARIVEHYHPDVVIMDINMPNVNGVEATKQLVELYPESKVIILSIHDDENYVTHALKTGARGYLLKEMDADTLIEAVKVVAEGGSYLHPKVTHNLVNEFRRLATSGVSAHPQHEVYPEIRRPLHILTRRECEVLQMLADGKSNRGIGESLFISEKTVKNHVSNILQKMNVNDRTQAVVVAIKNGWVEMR

[2] = tested on: DegU (Bacillus velezensis DMW1); assay: MST; details: MST: 50 mM Tris pH 7.5, 150 mM NaCl, 10 mM MgCl2, 0.05% Tween 20, 25 C

Substance | binding [1] | Kd [2]
AGTGCTCTATGTAAAATAGAGTGCTTTTTTTGCGGTTTAATGAAATCATATTGCGAACATTCGGACCGTCTGTTTCGGTTCTTGCGCTGTTTTTTCCGGGTCAGCTTACGTACGTAAATTTTTTTCATTCTGCCATAACTGGATATTTGACAGATTTTCATTATAGTTTAAAGATTTTTAATTTTACGTAAATAATATTTTTGAAAATAAATTGCGGGATGCCGCAAAATACCCTCTGGATTCGTCGGATTTTTTTTCGGTGTGCCGCATGAAACTTTTCACCCATTTTTCG (double strand) [P01 (srfA promoter -328 to -36)] | no binding | –
pfen | – | 1170 nM
ATGTGTGCGCCTCCCCTTTTTAAGATAAAGTTGTCAATTCTCCCTTAGAAACAGCCTCCCTCTATGTCCCTAACTCATTCTCAAGCCAAAAGAACCACTTACCTCCAAAAACGATCCCGATTCAATCACCGCCGAAATCCGTCATCCGTTCACCCGCGCAGTCCGAAATGCGGCATCAAATTTATGAGAAATCAAGACAAAAAGCCATTGATTGTAAGCACGAAAGGTTTACCTATTTCTGCATGTATTTCTATATATCTACTTACGTTCACTTTATATGAAAATATTGTTTTTATCAC (double strand) [P02 (srfA promoter -35 to +263)] | binds | –
pitu | – | 30 nM
pmln | – | 130 nM
psrfA | – | 670 nM
pbae | – | 110 nM
pdfn | – | 140 nM
